# Test results reported in PMC12207370, “Macrocyclic Peptide Probes for Immunomodulatory Protein CD59: Potent Modulators of Bacterial Toxin Activity and Antibody‐Dependent Cytotoxicity” (Angewandte Chemie (International Ed. in English), 2025).
# Target: T1, biotinylated CD59 (Homo sapiens, UniProt P13987)
# T1 construct: Recombinant soluble human CD59 with an additional C-terminal cysteine residue
# T1 sequence (P13987 26-102 limits assumed): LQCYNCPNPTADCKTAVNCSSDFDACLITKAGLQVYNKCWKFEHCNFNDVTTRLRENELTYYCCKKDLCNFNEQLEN
# Experiment: mRNA-display cyclic peptide screen against CD59-biotin, NGS abundance after 6th selection round
# Settings: for Counts (raw counts for peptide sequence), Seq I: NGS sample Seq I; for Counts (raw counts for peptide sequence), Seq I / Counts (raw counts for peptide sequence), Seq II / Counts Seq I / Counts Seq II: sheet R6 (6th selection round); for Counts (raw counts for peptide sequence), Seq II: NGS sample Seq II; for Percentage of the pool, averaged across the two sequencing samples: average of Seq I and Seq II; for Percentage of the pool, averaged across the two sequencing samples / Percentage of the pool, Seq I / Percentage of the pool, Seq II / Percentage Seq I / Percentage Seq II / Percentage Average: sheet R6; for Percentage of the pool, Seq I: counts normalised by total counts of NGS sample Seq I; for Percentage of the pool, Seq II: counts normalised by total counts of NGS sample Seq II; for Percentage Seq I: counts normalised by total counts of sample Seq I; for Percentage Seq I / Percentage Seq II: percentage of the pool; for Percentage Seq II: counts normalised by total counts of sample Seq II; for Percentage Average: percentage of the pool averaged across the two sequencing samples; for Counts Seq I / Counts Seq II: raw NGS counts of peptide sequence; for Counts Seq I: sequencing sample Seq I; for Counts Seq II: sequencing sample Seq II
# Text: To discover novel non‐protein CD59 ligands, we screened a library of 10^12 cyclic peptides against CD59 using mRNA‐display (Figure 2a).^[ [23], [24], [25], [26], [27], [28], [29] ^] Briefly, an mRNA library was designed in which the start codon was reprogrammed from Met to N‐chloroacetyl‐D‐Tyr (ClAc‐D‐Tyr), followed by 10–12 randomly encoded natural amino acids, a Cys residue, a (GlySer)3 linker, and a stop codon. […] The total library diversity was 1.51 × 10^13 molecules, comprising 5.02 × 10^12 molecules of each macrocycle size, covering a subset of the maximum theoretical diversity of this library design. Following in vitro translation, ClAc‐D‐Tyr spontaneously reacts with either the C‐terminal Cys or a Cys in the random region, yielding macrocyclic thioether peptides. Hits from the library were identified through iterative enrichment and amplification against biotinylated CD59, then immobilized on streptavidin beads. Fifteen hit sequences (CP‐01 to CP‐15), enriched with abundance >1% relative to the total pool of recovered binders after the 6th round of selection, were synthesized by solid phase peptide synthesis (SPPS), without the (Gly‐Ser)3 linker.
# Figure 2 Discovery of macrocyclic peptide ligands with nanomolar CD59 affinity using mRNA display. a) The selection process. PCR = polymerase chain reaction, SPPS = solid phase peptide synthesis. b) Table showing details of the peptides with nanomolar affinity for CD59 as well as the binding affinity of the lead inhibitor of CD59, rILYd4. K D values are presented as the average of three technical replicates ± SEM. Structures of all peptides and SPR sensograms are presented in Figures S1 and S2. *indicates the presented sequences are the variable regions of these cyclic peptides; each is flanked by an N‐terminal Ac‐D‐Tyr cyclized to a C‐terminal Cys. R6 abundance (%) is defined as (the given number of NGS reads for a given sequence/the total number of reads of unique sequences observed in NGS)*100 following the 6th selection round. c) Representative sensogram of the interaction between CP‐06 with immobilized CD59 by SPR analysis. Inset showing the equilibrium binding curve of CP‐06 to CD‐59. Below in the box are the association and dissociation rate constants of CP‐06. Concentrations are plotted in descending order from 800‐3.1 nM in line with their position on the legend. […] (nM)'; the box with Kon/Koff has no label of its own / ILYd4: the label may be cut off at the left edge (possibly 'rILYd4') / CP-02, KD: 15.3 ± 0.2, small print, 3 or 8 uncertain / CP-03, KD: 23.4 ± 0.7, small print / CP-06, KD: 11.3 ± 0.0, small print, 3 or 8 uncertain / CP-13, KD: 10.8 ± 0.7, small print, 8 or 6 uncertain / ILYd4, KD: 48.3 ± 1.1, small print, 8 and 3 uncertain
# The mRNA-display cyclic peptide screen was performed against CD59-biotin by T.E.M: DNA templates for transcription were generated by PCR in a similar manner to that previously described.^2 RNA oligonucleotides were transcribed from the DNA templates using T7 RNA polymerase and purified by phenol/chloroform extraction followed by ethanol precipitation. Oligonucleotide concentrations were determined spectroscopically by absorbance at 260 nm. In the first selection round a 1:1:1 molar ratio of NNK10/NNK11/NNK12 was used. The procedure for selection rounds 2-6 is described below; round 1 was conducted at twice the scale.
# RNA encoding for the peptide library ligated to a puromycin-modified oligonucleotide was […] (final [RNA] = 2.5 µM) using a customised PURE express kit (lacking release factor 1 and methionine, supplemented with […] initiator tRNA acylated with N-chloroacetyl-d-tyrosine prepared as previously described)^3 in a final volume of 5.6 µL for 1 hour at 37 °C.
# This mixture was incubated at 42 °C for 1 hour before being diluted to 500 µL with PBS (10 mM Na-PO4 pH 7.4, 2.7 mM KCl, 137 mM NaCl) and 0.5 µL taken for subsequent use in qPCR. […]
Sequence,"Counts (raw counts for peptide sequence), Seq I","Counts (raw counts for peptide sequence), Seq II","Percentage of the pool, averaged across the two sequencing samples [%]","Percentage of the pool, Seq I [%]","Percentage of the pool, Seq II [%]",Percentage Seq I [%],Percentage Seq II [%],Percentage Average [%],Counts Seq I,Counts Seq II
AISGGRDYTRG,43,6,0.012,0.010,0.014,–,–,–,–,–
AKGNGHFAYG,–,–,–,–,–,0.144,0.114,0.129,629,49
ARGGPTWSRG,–,–,–,–,–,0.034,0.037,0.035,147,16
ASWLPSPCKFN,–,–,–,–,–,0.029,0.037,0.033,128,16
ASWLPSPCKFS,73,4,0.013,0.017,0.009,–,–,–,–,–
ASWLTAPCYV,–,–,–,–,–,0.032,0.019,0.025,138,8
AVAGSRHWAWG,–,–,–,–,–,0.039,0.039,0.039,171,17
AVHGSSFYVWG,–,–,–,–,–,0.037,0.039,0.038,164,17
AVRGSSFYVWG,–,–,–,–,–,0.098,0.107,0.102,427,46
AVWGSAHDRWE,–,–,–,–,–,0.044,0.046,0.045,193,20
CAWGNRHIAYY,–,–,–,–,–,0.183,0.195,0.189,800,84
CAWGNRHTAYY,–,–,–,–,–,0.018,0.030,0.024,80,13
CAWGNRYIAYY,–,–,–,–,–,0.078,0.067,0.073,342,29
CAWGNRYTAYY,68,5,0.014,0.016,0.012,–,–,–,–,–
CCGGRTFIYAWS,44,4,0.010,0.010,0.009,–,–,–,–,–
CEALLRRGWD,–,–,–,–,–,0.094,0.079,0.087,413,34
CFAARARNNQTV,–,–,–,–,–,0.091,0.093,0.092,396,40

Sequence,"Counts (raw counts for peptide sequence), Seq I","Counts (raw counts for peptide sequence), Seq II","Percentage of the pool, averaged across the two sequencing samples [%]","Percentage of the pool, Seq I [%]","Percentage of the pool, Seq II [%]",Percentage Seq I [%],Percentage Seq II [%],Percentage Average [%],Counts Seq I,Counts Seq II
CFAARLSNGDS,–,–,–,–,–,0.319,0.362,0.341,1397,156
CFAARLSNGDT,73,7,0.016,0.017,0.016,–,–,–,–,–
CFAFRLSQTSV,–,–,–,–,–,0.179,0.146,0.162,782,63
CFAGRLAIDAV,54,8,0.015,0.012,0.019,–,–,–,–,–
CFAGRLTEGV,–,–,–,–,–,0.035,0.044,0.040,155,19
CFAGRLTIDAA,78,1,0.010,0.018,0.00232,–,–,–,–,–
CFAGRLTIDAAAAAAARTGGG,62,9,0.018,0.014,0.021,–,–,–,–,–
CFAGRLTIDAG,59,4,0.011,0.013,0.009,–,–,–,–,–
CFAGRLTIDAV,–,–,–,–,–,2.645,2.553,2.599,11574,1100
CFAGRLTIGAV,–,–,–,–,–,0.056,0.056,0.056,245,24
CFAGRLTTDAV,–,–,–,–,–,0.044,0.044,0.044,193,19
CFAGRLTVDAV,–,–,–,–,–,0.037,0.030,0.034,163,13
CFAGRPTIDAV,–,–,–,–,–,0.018,0.028,0.023,80,12
CFAHRITDPDTQ,–,–,–,–,–,0.023,0.019,0.021,100,8
CFAHRITDPNTQ,–,–,–,–,–,0.027,0.014,0.020,117,6
CFAKRIVALHST,54,7,0.014,0.012,0.016,–,–,–,–,–
CFAKRLSLDAL,–,–,–,–,–,0.177,0.176,0.177,774,76
